In paper PMC4133393:

Molecular target: (his)6CfaB, mature CfaB (residues 24–170) with N-terminal hexahistidine tag (enterotoxigenic E. coli (ETEC)) (UniProt E3PPC4)
Assay: pull-down

Chain of UniProt E3PPC4 (E3PPC4 24-170): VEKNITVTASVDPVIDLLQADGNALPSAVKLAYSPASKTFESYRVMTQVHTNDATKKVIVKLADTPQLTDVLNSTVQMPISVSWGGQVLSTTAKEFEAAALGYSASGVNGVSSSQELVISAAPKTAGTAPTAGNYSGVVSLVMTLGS

Substance | CfaA/CfaB ratio
CfaA (20–238), wild type, untagged (pETDuet-1-cfaA) (natural protein) | 0.66
CfaA (20–238) K9A (natural protein) | 0.64
